Experimental data from the Immune Epitope Database (IEDB).
pKd: −log10 of the molar value.

Experiments:
HLA-A*01:01 = assay: IEDB peptide-MHC binding, purified MHC/direct/fluorescence; filed as Kd, often an IC50 or EC50 that approximates it; ≥ and ≤ were set here for values at or beyond the usual limits of such assays
HLA-A*02:01 = assay: as above
HLA-A*03:01 = assay: as above
HLA-A*11:01 [1] = assay: as above
HLA-A*30:01 = assay: as above; conditions: source organism: Giardia lamblia ATCC 50803
HLA-A*31:01 = assay: as above
HLA-A*69:01 = assay: as above
HLA-B*07:02 [2] = assay: as above
HLA-B*15:01 = assay: as above
HLA-B*15:17 [3] = assay: as above
HLA-B*18:01 = assay: as above
HLA-B*27:05 [4] = assay: as above
HLA-B*40:01 = assay: as above
HLA-B*46:01 [5] = assay: as above
HLA-B*48:01 [6] = assay: as above
HLA-B*51:01 = assay: as above
HLA-B*57:01 = assay: as above
HLA-B*58:01 = assay: as above
HLA-C*03:03 = assay: as above
HLA-B*15:09 = assay: IEDB peptide-MHC binding, purified MHC/competitive/fluorescence; filed as Kd, often an IC50 or EC50 that approximates it; ≥ and ≤ were set here for values at or beyond the usual limits of such assays
HLA-A*24:03 = assay: IEDB peptide-MHC binding, purified MHC/direct/fluorescence; filed as Kd, often an IC50 or EC50 that approximates it; ≥ and ≤ were set here for values at or beyond the usual limits of such assays; conditions: source organism: Mycobacterium tuberculosis
HLA-C*04:01 = assay: as above
HLA-C*08:02 = assay: as above
HLA-C*12:03 = assay: as above
HLA-B*46:01 [7] = assay: IEDB peptide-MHC binding, purified MHC/competitive/fluorescence; filed as Kd, often an IC50 or EC50 that approximates it; ≥ and ≤ were set here for values at or beyond the usual limits of such assays; conditions: source organism: Escherichia coli 536
HLA-A*26:01 = assay: IEDB peptide-MHC binding, purified MHC/direct/fluorescence; filed as Kd, often an IC50 or EC50 that approximates it; ≥ and ≤ were set here for values at or beyond the usual limits of such assays
HLA-A*26:02 = assay: as above; conditions: source organism: Influenza A virus(A/swine/Shandong/fNY/2003(H9N2))
HLA-A*29:02 = assay: IEDB peptide-MHC binding, purified MHC/competitive/fluorescence; filed as Kd, often an IC50 or EC50 that approximates it; ≥ and ≤ were set here for values at or beyond the usual limits of such assays; conditions: source organism: Bacillus anthracis str. A0488
HLA-A*11:01 [8] = assay: as above; conditions: source organism: Escherichia coli APEC O1
HLA-B*27:05 [9] = assay: as above; conditions: source organism: Escherichia coli APEC O1
HLA-C*06:02 = assay: IEDB peptide-MHC binding, purified MHC/direct/fluorescence; filed as Kd, often an IC50 or EC50 that approximates it; ≥ and ≤ were set here for values at or beyond the usual limits of such assays; conditions: source organism: Influenza A virus (A/swine/Italy/1509-6/97(H1N1))
HLA-C*14:02 = assay: as above; conditions: source organism: Influenza A virus (A/swine/Italy/1509-6/97(H1N1))
HLA-B*07:02 [10] = assay: IEDB peptide-MHC binding, purified MHC/competitive/fluorescence; filed as Kd, often an IC50 or EC50 that approximates it; ≥ and ≤ were set here for values at or beyond the usual limits of such assays; conditions: source organism: Influenza A virus (A/swine/Italy/1509-6/97(H1N1))
HLA-B*48:01 [11] = assay: as above
HLA-A*26:03 = assay: IEDB peptide-MHC binding, purified MHC/direct/fluorescence; filed as Kd, often an IC50 or EC50 that approximates it; ≥ and ≤ were set here for values at or beyond the usual limits of such assays; conditions: source organism: Francisella tularensis subsp. tularensis FSC033
HLA-B*08:02 = assay: as above; conditions: source organism: Francisella tularensis subsp. tularensis FSC033
HLA-B*08:03 = assay: as above; conditions: source organism: Francisella tularensis subsp. tularensis FSC033
HLA-B*44:02 = assay: as above; conditions: source organism: Francisella tularensis subsp. holarctica LVS
HLA-B*15:17 [12] = assay: IEDB peptide-MHC binding, purified MHC/competitive/fluorescence; filed as Kd, often an IC50 or EC50 that approximates it; ≥ and ≤ were set here for values at or beyond the usual limits of such assays; conditions: source organism: Francisella tularensis subsp. tularensis FSC198
HLA-B*39:01 = assay: as above; conditions: source organism: Francisella tularensis subsp. tularensis FSC198
HLA-C*05:01 = assay: IEDB peptide-MHC binding, purified MHC/direct/fluorescence; filed as Kd, often an IC50 or EC50 that approximates it; ≥ and ≤ were set here for values at or beyond the usual limits of such assays; conditions: source organism: Variola virus
HLA-A*02:02 = assay: IEDB peptide-MHC binding, purified MHC/competitive/radioactivity; filed as Kd, often an IC50 or EC50 that approximates it; ≥ and ≤ were set here for values at or beyond the usual limits of such assays; conditions: source organism: Vaccinia virus WR
HLA-A*02:03 = assay: as above; conditions: source organism: Vaccinia virus WR
HLA-A*02:06 = assay: as above; conditions: source organism: Vaccinia virus WR
[13] = source organism: Giardia lamblia ATCC 50803
[14] = source organism: Yellow fever virus
[15] = source organism: Escherichia coli 536
[16] = source organism: Bacillus anthracis
[17] = source organism: Francisella tularensis subsp. holarctica LVS
[18] = source organism: Francisella tularensis subsp. tularensis FSC198

In the case of VAAKGAPAL, the pKd (HLA-A*01:01; [13]) was ≤ 4.70, the pKd (HLA-A*02:01; [13]) was ≤ 4.70 and the pKd (HLA-A*03:01; [13]) was ≤ 4.70. The pKd (HLA-A*11:01 [1]; [13]) was ≤ 4.70, the pKd (HLA-A*30:01) was ≤ 4.70 and the pKd (HLA-A*31:01; [13]) was ≤ 4.70. The pKd (HLA-A*69:01; [13]) was 7.17, the pKd (HLA-B*07:02 [2]; [13]) was 6.55 and the pKd (HLA-B*15:01; [13]) was ≤ 4.70. The pKd (HLA-B*15:17 [3]; [13]) was 8.15, the pKd (HLA-B*18:01; [13]) was ≤ 4.70 and the pKd (HLA-B*27:05 [4]; [13]) was ≤ 4.70. The pKd (HLA-B*40:01; [13]) was ≤ 4.70, the pKd (HLA-B*46:01 [5]; [13]) was ≤ 4.70 and the pKd (HLA-B*48:01 [6]; [13]) was 5.25. The pKd (HLA-B*51:01; [13]) was ≤ 4.70, the pKd (HLA-B*57:01; [13]) was ≤ 4.70 and the pKd (HLA-B*58:01; [13]) was 6.02. For the same sequence, the pKd (HLA-C*03:03; [13]) was 8.52 and the pKd (HLA-B*15:09; [13]) was ≤ 4.70.
With YYIIETEHL the pKd (HLA-A*24:03) was 9.70 and the pKd (HLA-C*04:01; source organism: Mycobacterium tuberculosis H37Ra) was ≤ 4.70.
YMPDVLEKL was tested, and the pKd (HLA-C*03:03; [14]) was ≤ 4.70, the pKd (HLA-C*08:02; [14]) was ≤ 4.70 and the pKd (HLA-C*12:03; [14]) was ≤ 4.70.
In the case of FMFDSDEAM, the pKd (HLA-C*03:03; [15]) was 8.30, the pKd (HLA-C*04:01; [15]) was ≤ 4.70 and the pKd (HLA-C*12:03; [15]) was 6.76. The pKd (HLA-B*46:01 [7]) was 7.53.
For TTVDHMAII, the pKd (HLA-A*26:01; source organism: Influenza A virus (A/chicken/Beijing/nl/2002(H9N2))) was 7.17 and the pKd (HLA-A*26:02) was 7.92.
YTVQGAGLM was tested, and the pKd (HLA-C*08:02; source organism: Bacillus anthracis str. A0488) was ≤ 4.70 and the pKd (HLA-A*29:02) was 7.59.
For TPRIANRLL, the pKd (HLA-A*01:01; [16]) was ≤ 4.70, the pKd (HLA-A*02:01; [16]) was ≤ 4.70 and the pKd (HLA-A*03:01; [16]) was ≤ 4.70. The pKd (HLA-A*31:01; [16]) was ≤ 4.70, the pKd (HLA-A*69:01; [16]) was ≤ 4.70 and the pKd (HLA-B*15:01; [16]) was ≤ 4.70. The pKd (HLA-B*15:17 [3]; [16]) was ≤ 4.70, the pKd (HLA-B*18:01; [16]) was ≤ 4.70 and the pKd (HLA-B*40:01; [16]) was ≤ 4.70. The pKd (HLA-B*46:01 [5]; [16]) was ≤ 4.70, the pKd (HLA-B*48:01 [6]; [16]) was ≤ 4.70 and the pKd (HLA-B*51:01; [16]) was ≤ 4.70. The pKd (HLA-B*57:01; [16]) was ≤ 4.70, the pKd (HLA-B*58:01; [16]) was ≤ 4.70 and the pKd (HLA-A*11:01 [8]) was 5.86. The pKd (HLA-B*27:05 [9]) was ≤ 4.70.
In the case of ATYQRTRAL, the pKd (HLA-C*06:02) was 7.12, the pKd (HLA-C*14:02) was 6.61 and the pKd (HLA-B*07:02 [10]) was 6.71.
In the case of WQLSGVVPL, the pKd (HLA-B*48:01 [11]; source organism: Toxoplasma gondii RH) was 7.52.
For REIGDISYL, the pKd (HLA-A*01:01; [17]) was ≤ 4.70, the pKd (HLA-A*02:01; [17]) was ≤ 4.70 and the pKd (HLA-A*11:01 [1]; [17]) was ≤ 4.70. For the same sequence, the pKd (HLA-A*26:01; source organism: Francisella tularensis subsp. tularensis FSC033) was ≤ 4.70, the pKd (HLA-A*26:03) was ≤ 4.70 and the pKd (HLA-A*31:01; [17]) was ≤ 4.70. For the same sequence, the pKd (HLA-A*69:01; [17]) was ≤ 4.70, the pKd (HLA-B*07:02 [2]; [17]) was ≤ 4.70 and the pKd (HLA-B*08:02) was ≤ 4.70. For the same sequence, the pKd (HLA-B*08:03) was ≤ 4.70, the pKd (HLA-B*27:05 [4]; [17]) was ≤ 4.70 and the pKd (HLA-B*40:01; [17]) was ≥ 9.00. For the same sequence, the pKd (HLA-B*44:02) was ≤ 4.70, the pKd (HLA-B*57:01; [17]) was ≤ 4.70 and the pKd (HLA-B*58:01; [17]) was ≤ 4.70. For the same sequence, the pKd (HLA-B*15:09; [18]) was 5.70, the pKd (HLA-B*15:17 [12]) was ≤ 4.70 and the pKd (HLA-B*39:01) was 6.51. For the same sequence, the pKd (HLA-B*48:01 [11]; [18]) was ≤ 4.70.
For KVDDTFYYV, the pKd (HLA-A*69:01; source organism: Camelpox virus CMS) was 8.70, the pKd (HLA-C*03:03; source organism: Variola virus) was ≤ 4.70 and the pKd (HLA-C*05:01) was 8.52. The pKd (HLA-A*02:02) was 5.73, the pKd (HLA-A*02:03) was ≤ 4.11 and the pKd (HLA-A*02:06) was ≤ 4.46.
